Measurements from patent US20160090416A1 (NUMAB, published 2016).

B1: Construct 3 (anti-CD3×anti-IL5R scDb comprising the humanized variable domain of clone-03) (bispecific antibody)
chain: DIQMTQSPSSLSASVGDRVTITCQASQNIYSNLAWYQQKPGKAPKLLIYRASTLASGVPSRFSGSGSGTDFTLTISSLQPEDFATYYCQSNYGINYYGAAFGQGTKLTVLGGGGGSEVQLVESGGGLVQPGGSLRLSCAVSGFPLNRYAMLWVRQAPGKGLEWIGLITRADKKYYASWAKGRFTISKDNSKNTVYLQMNSLRAEDTAVYYCARRHYNTDGYPIAIGDLWGQGTLVTVSSGGGGSGGGGSGGGGSGGGGSDIQMTQSPSSLSASVGDRVTISCQSNENIYSNNRLSWYQQKPGKAPKLLIYSASSLASGVPSRFSGSGSGTDFTLTISDLEPEDFATYYCQGEFNCNSADCFTFGQGTKLTVLGGGGGSEVQLVESGGGLVQPGGSLRLSCAASGFSLSSYDMTWVRQAPGKGLEWIGIIYVSGSAYYASWAKGRFTISRDNSKNTVYLQMNSLRAEDTAVYYCARINYGLDLWGQGTLVTVSS
B2: Construct 2 (anti-CD3×anti-IL5R scDb comprising the humanized variable domain of clone-02) (bispecific antibody)
chain: DIQMTQSPSSLSASVGDRVTITCQASQNIYSNLAWYQQKPGKAPKLLIYRASTLASGVPSRFSGSGSGTDFTLTISSLQPEDFATYYCQSNYGINYYGAAFGQGTKLTVLGGGGGSEVQLVESGGGLVQPGGSLRLSCAASGFPLSAYAMIWVRQAPGKGLEWIGMIIRSGTVYYANWAKGRFTISRDNSKNTVYLQMNSLRAEDTAVYYCARRHYNADGYPIGIGDLWGQGTLVTVSSGGGGSGGGGSGGGGSGGGGSDIQMTQSPSSLSASVGDRVTITCQSSESVYSNNRLSWYQQKPGKAPKLLIYSASTLASGVPSRFSGSGSGTDFTLTISSLQPEDFATYYCQGEFSCSSVDCFSFGQGTKLTVLGGGGGSEVQLVESGGGLVQPGGSLRLSCAASGFSLSSYDMTWVRQAPGKGLEWIGIIYVSGSAYYASWAKGRFTISRDNSKNTVYLQMNSLRAEDTAVYYCARINYGLDLWGQGTLVTVSS
B3: Construct 1 (anti-CD3×anti-IL5R scDb comprising the humanized variable domain of clone-06) (bispecific antibody)
chain: DIQMTQSPSSLSASVGDRVTITCQASQNIYSNLAWYQQKPGKAPKLLIYRASTLASGVPSRFSGSGSGTDFTLTISSLQPEDFATYYCQSNYGINYYGAAFGQGTKLTVLGGGGGSEVQLVESGGGLVQPGGSLRLSCAASGFPLSSYAMIWVRQAPGKGLEWIGMILRAGNIYYASWVKGRFTISRDNSKNTVYLQMNSLRAEDTAVYYCARRHYNREGYPIGIGDLWGQGTLVTVSSGGGGSGGGGSGGGGSGGGGSDIQMTQSPSSLSASVGDRVTITCQSSESVYNNKRLSWYQQKPGKAPKLLIYTASSLASGVPSRFSGSGSGTDFTLTISSLQPEDFATYYCQGEFTCSNADCFTFGQGTKLTVLGGGGGSEVQLVESGGGLVQPGGSLRLSCAASGFSLSSYDMTWVRQAPGKGLEWIGIIYVSGSAYYASWAKGRFTISRDNSKNTVYLQMNSLRAEDTAVYYCARINYGLDLWGQGTLVTVSS
B4: clone-10 (antibody, V domains shown)
VH: QSLEESGGRLVTPGTPLTLTCTVSGFPLSSFAMLWVRQAPGKGLEWIGMIMRAHNMYYASWAKGRFTISKTSTTVDLEITSPTTEDTATYFCARRHYNTYGYPIAIGDLWGPGTLVTVSS
VL: AQVLTQTPSSVSAAVGGTATISCQSNENIYSNNRLSWFQQKAGQPPNQLIYSASSLASGVPSRFKGSGSGTQFTLTISDLECDDAATYYCQGEFSCSSADCFTFGGGTEVVVKG
B5: clone-06 (antibody, V domains shown)
VH: QSVEESGGRLVTPGTPLTLTCTVSGFPLSSYAMIWVRQAPGKGLEWIGMILRAGNIYYASWVKGRVTISKTSTTVDLKITSPTTEDTATYFCARRHYNREGYPIGIGDLWGPGTLVTVSS
VL: AQVLTQTPSSVSAAVGGTVTISCQSSESVYNNKRLSWFQQKPGQPPKQLIYTASSLASGVPSRFKGSGSGTQFTLTISDLECDDAATYYCQGEFTCSNADCFTFGGGTEVVVKG
B6: clone-04 (antibody, V domains shown)
VH: QSLEESGGRLVKPDETLTLTCTVSGFPLSSYAMGWFRQAPGKGLEWIGMILRSDNTYYASWAKGRFTISKTSTTVDLKITSPTTEDTATYFCARRHYNASGNPIAIGDLWGPGTLVTVSS
VL: AQVLTQTPSSVSAAVGGTVTINCQSSQSVYNNNRLSWFQQKPGQPPKLLIYTTSSLASGVPSRFKGSGSGTEFTLTISDLECADAATYYCQGEFSCSRADCFNFGGGTEVVVKG
B7: clone-03 (antibody, V domains shown)
VH: QSLEESGGRLVTPGTPLTLTCTVSGFPLNRYAMLWVRQAPGKGLEWIGLITRADKKYYASWAKGRFTISKTSTTVDLEITGPTTEDTATYFCARRHYNTDGYPIAIGDLWGPGTLVTVSS
VL: AQVLTQTPSSVSAAVGGTVTISCQSNENIYSNNRLSWFQQKPGQPPNQLIYSASSLASGVPSRFKGSGSGTQFTLTISDLECDDAATYYCQGEFNCNSADCFTFGGGTEVVVKG
B8: clone-02 (antibody, V domains shown)
VH: QSLEESGGRLVTPGTPLTLTCTVSGFPLSAYAMIWVRQAPGKGLEWIGMIIRSGTVYYANWAKGRFTISKTSTTVDLKITSPTTEDTATYFCARRHYNADGYPIGIGDLWGPGTLVTVSS
VL: AQVLTQTPSSVSAVVGGTVTISCQSSESVYSNNRLSWFQQKPGQPPKLLIYSASTLASGVPSRFKGSGSGTQFTLTITDLECDDAATYFCQGEFSCSSVDCFSFGGGTEVVVKG

Assays:
[1] = target: human CD3ε expressed on the cell surface of T cells (Jurkat clone E6-1; human CD8+ T cells) (human) (UniProt P07766); test: cell-based or functional assay
human CD3ε expressed on the cell surface of T cells (Jurkat clone E6-1; human CD8+ T cells) (human), sequence (P07766 23-207): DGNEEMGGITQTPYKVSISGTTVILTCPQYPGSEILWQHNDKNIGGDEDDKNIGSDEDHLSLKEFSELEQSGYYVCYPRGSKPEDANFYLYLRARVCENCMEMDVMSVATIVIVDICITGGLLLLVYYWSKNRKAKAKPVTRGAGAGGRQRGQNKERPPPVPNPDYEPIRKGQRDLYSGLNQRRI

[2] = target: T1, human heterodimeric single-chain CD3εγ extracellular domain (human, UniProt P07766 23-126; P09693 23-116); test: SPR (MASS-1), human scCD3εγ ECD immobilized, scDb injected
T1 construct: extracellular domain; Produced in-house; single-chain protein of the extracellular domains of CD3ε and CD3γ joined by a flexible linker; also called scCD3γε; human CD3ge
T1 sequence (P07766 23-126, chain 1 of 2): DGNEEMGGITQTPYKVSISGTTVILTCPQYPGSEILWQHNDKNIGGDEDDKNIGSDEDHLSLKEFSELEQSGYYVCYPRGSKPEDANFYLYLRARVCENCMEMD
T1 sequence (P09693 23-116, chain 2 of 2): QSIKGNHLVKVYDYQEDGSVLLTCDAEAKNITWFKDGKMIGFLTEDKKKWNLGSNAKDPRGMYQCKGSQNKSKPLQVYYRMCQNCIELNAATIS

[3] = target: T2, human CD3ε expressed on the cell surface of T cells (Jurkat clone E6-1; human CD8+ T cells) (human, UniProt P07766 23-207); test: cell-based or functional assay
T2 sequence (P07766 23-207): as the sequence (P07766 23-207) above

[4] = target: T2, human CD3ε expressed on the cell …; test: cell-based or functional assay; remark: listed apart in the source

Molecule | Kd [2] [nM] | Fold increase in CD69 expression [MFI normalized to neg. ctrl.], 1.25 µg/ml anti-CD3 IgG, cross-linked, Jurkat cells, 24 h [4] [fold] | Fold increase in CD69 expression [MFI normalized to neg. ctrl.], 5 µg/ml anti-CD3 IgG, cross-linked, Jurkat cells, 24 h [4] [fold] | Fold increase in CD69 expression [MFI normalized to neg. ctrl.], 20 µg/ml anti-CD3 IgG, cross-linked, Jurkat cells, 24 h [4] [fold] | further results
OKT3 (antibody) |  |  |  |  | Fold increase in CD69 expression [MFI normalized to neg. ctrl.], 1.25 µg/ml anti-CD3 IgG, cross-linked, Jurkat cells, 24 h [1]: 1.8 fold; Fold increase in CD69 expression [MFI normalized to neg. ctrl.], 5 µg/ml anti-CD3 IgG, cross-linked, Jurkat cells, 24 h [1]: 2.5 fold; Fold increase in CD69 expression [MFI normalized to neg. ctrl.], 20 µg/ml anti-CD3 IgG, cross-linked, Jurkat cells, 24 h [1]: 3.1 fold
TR66 (antibody) |  |  |  |  | Fold increase in CD69 expression [MFI normalized to neg. ctrl.], 1.25 µg/ml anti-CD3 IgG, cross-linked, Jurkat cells, 24 h [1]: 1.6 fold; Fold increase in CD69 expression [MFI normalized to neg. ctrl.], 5 µg/ml anti-CD3 IgG, cross-linked, Jurkat cells, 24 h [1]: 2.2 fold; Fold increase in CD69 expression [MFI normalized to neg. ctrl.], 20 µg/ml anti-CD3 IgG, cross-linked, Jurkat cells, 24 h [1]: 3 fold
B1 | 123 |  |  |  | 
B2 | 29.6 |  |  |  | Potency to stimulate IL-2 secretion by T cells [EC50] (CD8+ T cells with CHO-IL5R cells, 16 h) [3]: 5.67 nM
B3 | 11.5 |  |  |  | Potency to lyse target cells [EC50] (CHO-IL5R cells, human CD8+ T cells, 88 h) [3]: 0.1 nM; Potency to stimulate IL-2 secretion by T cells [EC50] (CD8+ T cells with CHO-IL5R cells, 16 h) [3]: 0.96 nM
B4 |  | 2.6 | 4.2 | 6.2 | 
B5 |  | 2.7 | 5.1 | 5.3 | 
B6 |  | 2.6 | 3.5 | 7.8 | 
B7 |  | 2.6 | 4.6 | 6.6 | 
B8 |  | 3.3 | 4.6 | 7.4 | 
